Test results reported in patent US8283521B2, “Transcription factor gene induced by water deficit conditions and abscisic acid from Helianthus annuus, promoter and transgenic plants” (Bioceres S.A., priority 2003, dated 2012).

Test system: gus gene
Assay: Histochemical analysis of β-glucuronidase activity in transformed plants
Format: in vivo, Arabidopsis thaliana
Settings: for induction of the promoter construct by ABA: gus reporter, ABA treatment; for expression of gus gene in different development stages and organs: several independent lines, all studied organs; for expression of gus gene in cotyledons: 2-day germination seedlings
Source text: When the construct including the complete segment of the small allele was employed, the expression of the gus gene in the cotyledons of 2-day germination seedlings was also viewed. However, and differing from the region 0 to −400, the expression of gus gene was very intense in the leaves and roots of the young seedlings (FIG. 20).
The inventive plants from A. thaliana that resulted resistant to kanamycin in the selection and PCR reaction of were subjected to histochemical β-glucuronidase activity test. The tested embryos and organs were washed with buffer 50 mM Na2HPO4 pH 7. They were then transferred to a solution 50 mM Na2HPO4 pH 7.0, 1% Triton X-100, 2 mM X-gluc (5-bromine-4-chlorine-3-indolil β-D-glucuronide), subjected to vacuum for 5 minutes and incubated at 37° C. in darkness between 2 and 12 hours. After incubation they were fixed in 10% formaldehide solution, 50% ethanol and 5% ascetic acid for 10 minutes at room temperature. Formaldehide was removed, ethanol 70% was added and conserved at 4° C.
The histochemical analysis was made in 2, 10 and 20 day-old seedlings grown in Petri dishes containing MS medium and 0.8% agar and adult plants grown in flowerpots containing soil.

Row | Molecule | induction of the promoter construct by ABA | expression of gus gene in different development stages and organs | expression of gus gene in cotyledons | expression of gus gene during the reproductive stage (reproductive stage) | expression of gus gene in leaves and roots (young seedlings) | expression of gus gene in young seedlings (10 germination days)
1 | region 0 to −200: promoter fragment, nucleotides 1011 to 1221 of SEQ ID NO 3, in pBI101.3 (nucleic acid, listed as Helianthus annuus, in pBI101.3; promoter (1)..(1221) Large allele) DNA: ATCTCAACCGAAAGTGACATCATGACAGAGAATCGACATAACCAAAACGTGTAAACGTACAACTCACCATTGCGTTGAAAAGGACAAAACAGGTAGGATTCTTGTCAAATTCAACGCGTACACCTGTGCTTCATCTAAACCCCATACTTTAAGAACCTTTATAAAGACCACTCACTATATATACACATATATAATATCACTTATCAAACCC | not induced by ABA | not expressed | – | – | – | –
2 | region 0 to −300: promoter fragment, nucleotides 904 to 1221 of SEQ ID NO 3, in pBI101.3 (nucleic acid, listed as Helianthus annuus, in pBI101.3; promoter (1)..(1221) Large allele) DNA: AACCTAAGTCCGCCTTTGTCTGGATCACGTGAAACATCAGGTCTCTCCCTTACCAGTCCAGCTACGACTCATTGACAAAATATCAAAACCATATGATTTTGAGTTTTATCTCAACCGAAAGTGACATCATGACAGAGAATCGACATAACCAAAACGTGTAAACGTACAACTCACCATTGCGTTGAAAAGGACAAAACAGGTAGGATTCTTGTCAAATTCAACGCGTACACCTGTGCTTCATCTAAACCCCATACTTTAAGAACCTTTATAAAGACCACTCACTATATATACACATATATAATATCACTTATCAAACCC | not induced by ABA | not expressed | – | – | – | –
3 | construct including the complete segment of the small allele: promoting region from 0 to −1015 (small allele, SEQ ID NO 10) cloned in pBI101.3 driving gus (nucleic acid, listed as Helianthus annuus, cloned in pBI101.3 driving gus) DNA: GATCCAATTGGACCACCTGGCACATCGTATCTTATCTCTTTTGTCGTTTCCAACACACCACAACACACCTACAAACGTGTCAATTCACACTTCACCAATTTCATTTCCTTTTAGTCAATCATATTAAAAGTAGTAGCCCCCACCCCCATTTGTTACCTACCATTTCCCACTTTAATAATCACCCACGCTATGTCCACTTGTACTTTTGTTTGCACACAACTCTTCCCATAAAATATCAAACCAAATTTTTTTTAATGGAAAACAAATACTTCAAATGCACTATTGGTGAAATTCACCACATCAGAATACACCCGTCTCTACTCATCTACTGGCCAACGAATCTTCACGGGGGAAACCCTCACTCGTCTACTGGGACTACTGGCGCTTCAAAATGGACTACTGACAAAATTCACCACATCGGGATACACTTGTCTACTGCGGTGAGGTAAAATCCGCCGCTCAGCTCAATGATCGAACTAGCGATCGCCACCCACTCACCTTGTCTCCCATCATCACCAGGTGCCGCCAAAACAAAATGTTGGGGGCGGGAATTGAACCTAGGTCCAGTGGCGCACCCATGAATTTTTTTTCTAGGGATGCGAACGAGTGATTTAACCATACTTTTAAGAGGTGCGATCGGAAATTTTACCTATAAAATATACTAAAAAAATTTCAAGGGTCCGCCCACCCACCCCTTAACCTAAGTCCGCCTCTGCCTGGATCACGTGAAACATCAGGTCTCTCTCTTACCAGTTCACCTACAACTCATTGACAAAATATCAAAACCATATGATTTTGAGTTTTATCTCAACCGAAAGTGACATCATGACAGAGAATCGACATAACCAAAACGTGTAAACGTACAACTCACCATTGCGTTGAAAAGGACAAAACAGGTAGGATTCTTGTCAAATTCAACGCGTACACCTGTGCTTCATCTAAACCCCATACTTTAAGAACCTTTATAAAGACCACTCACTATATATACACATATATAATATCACTTATCAAACCC | – | – | also viewed | not detected any expression | very intense | –
4 | construct 0 to −400: Hahb-4 promoter fragment, nucleotides 805 to 1221 of SEQ ID NO 3, cloned into pBI101.3 driving gus (nucleic acid, listed as Helianthus annuus, cloned in pBI101.3 driving gus; promoter (1)..(1221) Large allele) DNA: GGATGCGAACGAGTGGTTTAACCATACTTTTAAGAGGTGCGATCGGAAATTTTACCTATAAAATACACTAAAAAAGTTCCAAGGGTCCACCCACCCCTTAACCTAAGTCCGCCTTTGTCTGGATCACGTGAAACATCAGGTCTCTCCCTTACCAGTCCAGCTACGACTCATTGACAAAATATCAAAACCATATGATTTTGAGTTTTATCTCAACCGAAAGTGACATCATGACAGAGAATCGACATAACCAAAACGTGTAAACGTACAACTCACCATTGCGTTGAAAAGGACAAAACAGGTAGGATTCTTGTCAAATTCAACGCGTACACCTGTGCTTCATCTAAACCCCATACTTTAAGAACCTTTATAAAGACCACTCACTATATATACACATATATAATATCACTTATCAAACCC | capable of being induced by ABA | – | enough to drive the expression of gene gus | – | – | not detectable
